From patent publication US20240369485A1, “FLUORESCENT SENSOR FOR MONITORING CALCIUM DYNAMICS” (priority 2021, published 2024)

Assay: Quantum yield, extinction coefficient, and brightness determination
Type: physicochemical
Parameters: key to Brightness: extinction coefficient × quantum yield
Protocol: Quantum yield, extinction coefficient, and brightness determination. The quantum yield values of all the variants were determined by measuring the emitted fluorescence intensities and absorbance intensities of the chromophore at different protein concentrations. The wildtype was used as a reference to calculate quantum yield. Brightness was defined as a visual perception in which a source appears to emit or reflect a given amount of light, which was obtained by multiplying the extinction coefficient and the quantum yield.

B1: R-CatchER: red genetically encoded Ca^2+ indicator, mApple A145E/K198D/R216D, SEQ ID NO: 12 (protein)
chain: EENNMAIIKEFMRFKVHMEGSVNGHEFEIEGEGEGRPYEAFQTAKLKVTKGGPLPFAWDILSPQFMYGSKVYIKHPADIPDYFKLSFPEGFRWERVMNFEDGGIIHVNQDSSLQDGVFIYKVKLRGTNFPSDGPVMQKKTMGWEESEERMYPEDGALKSEIKKRLKLKDGGHYAAEVKTTYKAKKPVQLPGAYIVDIDLDIVSHNEDYTIVEQYEDAEGRHSTGGMDELYK
Apo
  Brightness: 0.13 ± 0.02
  Extinction coefficient: 44000 M⁻¹ cm⁻¹
  Fluorescence quantum yield: 0.30 ± 0.02
Holo
  Brightness: 0.30 ± 0.03
  Extinction coefficient: 60000 M⁻¹ cm⁻¹
  Fluorescence quantum yield: 0.50 ± 0.03
  ε (holo) (×10^4) (M^−1 cm^−1): 6 ×10^4 M^−1 cm^−1
apo
  ε (apo) (×10^4) (M^−1 cm^−1): 4 ×10^4 M^−1 cm^−1
apo, quantum yield
  Φ (apo): 0.30
holo, quantum yield
  Φ (holo): 0.50
